# Results published in patent US20090029392.
# System: T1, Biotin-GDEVDGC biotinylated peptide substrate for caspase-3, coupled to aminated CLIO
# T1 sequence: GDEVDGC
substance,measurement,value
Caspase 3,T2 relaxation time (dispersal of the aggregate after cleavage of the peptide),"When the inhibitor is not added or capase is added, the aggregate is dispersed resulting in an increase of T2"
